Source: publication PMC7380666

Test: purification, SEC and SDS-PAGE
Settings: glycan lost; control: wild-type mCD98hcED

B1: mCD98hcED (murine CD98hc extracellular domain): N385D/T401A (protein)
parent chain: MSQDTEVDMKDVELNELEPEKQPMNAADGAAAGEKNGLVKIKVAEDETEAGVKFTGLSKEELLKVAGSPGWVRTRWALLLLFWLGWLGMLAGAVVIIVRAPRCRELPVQRWWHKGALYRIGDLQAFVGRDAGGIAGLKSHLEYLSTLKVKGLVLGPIHKNQKDEINETDLKQINPTLGSQEDFKDLLQSAKKKSIHIILDLTPNYQGQNAWFLPAQADIVATKMKEALSSWLQDGVDGFQFRDVGKLMNAPLYLAEWQNITKNLSEDRLLIAGTESSDLQQIVNILESTSDLLLTSSYLSNSTFTGERTESLVTRFLNATGSQWCSWSVSQAGLLADFIPDHLLRLYQLLLFTLPGTPVFSYGDELGLQGALPGQPAKAPLMPWNESSIFHIPRPVSLNMTVKGQNEDPGSLLTQFRRLSDLRGKERSLLHGDFHALSSSPDLFSYIRHWDQNERYLVVLNFRDSGRSARLGASNLPAGISLPASAKLLLSTDSARQSREEDTSLKLENLSLNPYEGLLLQFPFVA
stability_or_folding: no change
